Measurements as given in PMC6276879 (The EMBO Journal, 2018).

Biological target: T1, phosphorylated ubiquitin (UniProt P0CG48 1-76, phosphorylated by PINK1 (pUb); the residue is not given)
T1 construct: ubiquitin, phosphorylated by PINK1 (pUb); also called pUb; phospho-ubiquitin; source: E. coli BL21(DE3)CodonPlus-RIL; phosphorylated with Pediculus humanus PINK1, purified (Superdex 75)
Assay: SEC; 1.5-fold excess pUb over R0RBR in 20 mM Tris, 75 mM NaCl, 250 uM TCEP, pH 8; 1:1 complex purified on Superdex 75 10/300
Conditions: both partners purified

B1: R0RBR parkin (141-465) (domain or fragment, human, UniProt O60260 141-465, looked up)
chain: SIYNSFYVYCKGPCQRVQPGKLRVQCSTCRQATLTLTQGPSCWDDVLIPNRMSGECQSPHCPGTSAEFFFKCGAHPTSDKETSVALHLIATNSRNITCITCTDVRSPVLVFQCNSRHVICLDCFHLYCVTRLNDRQFVHDPQLGYSLPCVAGCPNSLIKELHHFRILGEEQYNRYQQYGAEECVLQMGGVLCPRPGCGAGLLPEPDQRKVTCEGGNGLGCGFAFCRECKEAYHEGECSAVFEASGTTTQAYRVDERAAEQARWEAASKETIKKTTKPCPRCHVPVEKNGGCMHMKCPQPQCRLEWCWNCGCEWNRVCMGDHWFDV
notes: parkin, human, residues 141-465 (R0RBR: RING0-RING1-IBR-RING2(Rcat)); also called R0RBR C-terminal region of parkin; source: E. coli BL21(DE3), purified (HisTrap, Ulp1 cleavage, HisTrap, Superdex 75); not shown: His-smt3, N-terminal, cleaved
B1: binds.
